Experimental data from paper PMC6433120 (Nature, 2018).

Target: T1, CC-SAM domain of murine KSR1 (mouse, UniProt Q61097 25-170)
T1 sequence (looked up): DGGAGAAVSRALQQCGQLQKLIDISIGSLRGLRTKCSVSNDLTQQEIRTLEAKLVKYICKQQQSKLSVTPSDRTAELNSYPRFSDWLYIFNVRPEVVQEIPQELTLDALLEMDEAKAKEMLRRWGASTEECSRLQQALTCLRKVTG
Assay: NMR titration

binding result: binds
B1: BRS domain of human BRAF (domain or fragment, UniProt P15056 36-114, looked up)
chain: SSAADPAIPEEVWNIKQMIKLTQEHIEALLDKFGGEHNPPSIYLEAYEEYTSKLDALQQREQQLLESLGNGTDFSVSSS
